Data taken from publication PMC4486954, “Highly homologous proteins exert opposite biological activities by using different interaction interfaces” (Scientific Reports, 2015).
cellulose membrane = C-terminus attached to a cellulose membrane (CelluSpots array) through an amide bond

Key:
iASPP Ank-SH3 = target: T1, iASPP Ank-SH3 (Homo sapiens, UniProt Q8WUF5); assay: Fluorescence anisotropy binding of fluorescein-labeled iASPP Pro derived peptides to iASPP Ank-SH3; details: 250 μM iASPP Ank-SH3 titrated into 100 nM fluorescein-labeled peptide, 10 °C, 20 mM Hepes pH 7.3, ionic strength 50 mM
T1 construct: (2) iASPP Ank-SH3 603-828; HLT tag (His tag + lipoyl domain + TEV site) (N, cleaved yes); made in house; host or cells: E. coli HMS 174 (Novagen)
T1 sequence (Q8WUF5 603-828): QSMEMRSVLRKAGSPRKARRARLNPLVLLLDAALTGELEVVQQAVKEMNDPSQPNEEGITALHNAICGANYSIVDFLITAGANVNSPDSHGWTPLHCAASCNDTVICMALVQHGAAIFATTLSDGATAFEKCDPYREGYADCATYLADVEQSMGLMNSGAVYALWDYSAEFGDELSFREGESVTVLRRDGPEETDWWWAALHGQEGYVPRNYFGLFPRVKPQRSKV
Protocol: Binding of the iASPP Pro-derived peptides to iASPP Ank-SH3 was measured by fluorescence anisotropy using a PerkinElmer Life Sciences LS-50b spectrofluorimeter equipped with a Hamilton microlab M dispenser. Titration of iASPP Ank-SH3 into iASPP Pro derived fluorescein-labeled (FL) peptides was performed at 10 °C in 20 mM Hepes buffer, pH 7.3, 43 mM NaCl (total ionic strength = 50 mM), 10% glycerol and 5 mM β-mercaptoethanol. The excitation wavelength was set at 480 nm and the emission measured at 530 nm. The labeled peptide, dissolved in 1 ml buffer to a final concentration of 100 nM, was placed in the cuvette. 250 μM iASPP Ank-SH3 was placed in the dispenser and aliquots of 10–20 μl were added at 1.5 min intervals. The solution was then stirred for 30 sec, and the fluorescence and anisotropy were measured. Data were analyzed using the program Origin8 (OriginLab) and were fit to 1:1 binding model:
[drawing 1] (R- measured fluorescence anisotropy, R0- anisotropy value corresponding to the free peptide, ∆R- amplitude of the fluorescence anisotropy change, [Protein]- protein concentration, Kd- dissociation constant).

HLT-iASPP Ank-SH3 = target: T2, HLT-iASPP Ank-SH3 (human, UniProt Q8WUF5 603-828); assay: peptide or protein array; CelluSpots array of 79 partly overlapping 15-residue iASPP Pro peptides on cellulose; 5 uM HLT-iASPP Ank-SH3 in 20 mM phosphate pH 7.0, ionic strength 150 mM, 5 mM βME, 10% glycerol, 2.5% skimmed milk; 4 °C overnight; detected with anti His HRP antibody; details: both partners purified
T2 construct: iASPP (human), four ankyrin repeats and SH3 domain, residues 603-828, Swiss-Prot Q8WUF5; Detected on the arrays by its His tag (anti His HRP antibody); source: E. coli HMS 174, purified (Nickel Sepharose, size exclusion chromatography); not shown: HLT (His tag, lipoyl domain, TEV protease cleavage site), N-terminal, kept
T2 sequence (looked up): T1 sequence (Q8WUF5 603-828)

## SDAGSYRRSLGSAGP [iASPP 324-338, iASPP Pro derived peptide, residues 324-338]
iASPP Ank-SH3
  binding to iASPP Ank-SH3 (in words): no binding

## PTPFDFLGRAGSPRG [iASPP 172-186, iASPP Pro derived peptide, residues 172-186]
iASPP Ank-SH3
  binding to iASPP Ank-SH3 (in words): too weak to quantify

## YGSLDRATSPRPRAF [iASPP 132-146, iASPP Pro derived peptide, residues 132-146]
iASPP Ank-SH3
  binding to iASPP Ank-SH3 (in words): too weak to quantify

## FFPERGPSPRPPATA [iASPP 196-210, iASPP Pro derived peptide, residues 196-210]
iASPP Ank-SH3
  binding to iASPP Ank-SH3 (in words): no binding

## VARPLSPTRLQPALP [iASPP 484-498, iASPP Pro derived peptide, residues 484-498]
iASPP Ank-SH3
  binding to iASPP Ank-SH3 (in words): too weak to quantify

## PLFTRAPPPKLQPQP [iASPP 396-410, iASPP Pro derived peptide, residues 396-410]
iASPP Ank-SH3
  binding to iASPP Ank-SH3 (in words): too weak to quantify

## PRYSSSSIPEPFGSR [iASPP 68-82, iASPP Pro derived peptide, residues 68-82]
iASPP Ank-SH3
  binding to iASPP Ank-SH3 (in words): no binding

## TLPRNYKVSPLASDR [iASPP 308-322, iASPP Pro derived peptide, residues 308-322]
iASPP Ank-SH3
  binding to iASPP Ank-SH3 (in words): no binding

## APSPRPGPGPLRQQG [iASPP 156-170, iASPP Pro derived peptide, residues 156-170]
iASPP Ank-SH3
  binding to iASPP Ank-SH3 (in words): no binding

B1: iASPP Pro array peptide 356-370 (spot C3) (peptide)
peptide: Ac-PSSPQPRGAPRQRPI-{cellulose membrane (amide bond)}
modifications: also: C-terminus bound to cellulose membrane via amide
notes: iASPP (human) residues 356-370; source: synthetic peptide on CelluSpots array (INTAVIS)
HLT-iASPP Ank-SH3
  binding result: binds

B2: iASPP Pro array peptide 540-554 (spot D3) (peptide)
peptide: Ac-KKQYQQIISRLFHRH-{cellulose membrane}
modifications: also: C-terminus bound to cellulose membrane via amide
notes: iASPP (human) residues 540-554; source: synthetic peptide on CelluSpots array (INTAVIS)
HLT-iASPP Ank-SH3
  binding result: binds

B3: iASPP Pro array peptide 604-618 (spot D11) (peptide)
peptide: Ac-SMEMRSVLRKAGSPR-{cellulose membrane}
modifications: also: C-terminus bound to cellulose membrane via amide
notes: iASPP (human) residues 604-618; also called iASPP 604-618; source: synthetic peptide on CelluSpots array (INTAVIS)
HLT-iASPP Ank-SH3
  binding result: binds

B4: iASPP Pro array peptide 348-362 (spot C2) (peptide)
peptide: Ac-PVSRIPMPPSSPQPR-{cellulose membrane (amide bond)}
modifications: also: C-terminus bound to cellulose membrane via amide
notes: iASPP (human) residues 348-362; source: synthetic peptide on CelluSpots array (INTAVIS)
HLT-iASPP Ank-SH3
  binding result: binds

B5: iASPP Pro array peptide 396-410 (spot C8) (peptide)
peptide: Ac-PLFTRAPPPKLQPQP-{cellulose membrane (amide bond)}
modifications: also: C-terminus bound to cellulose membrane via amide
notes: iASPP (human) residues 396-410; source: synthetic peptide on CelluSpots array (INTAVIS)
HLT-iASPP Ank-SH3
  binding result: binds

B6: iASPP Pro array peptide 60-74 (spot A14) (peptide)
peptide: Ac-QAGPPSRPPRYSSSS-{cellulose membrane}
modifications: also: C-terminus bound to cellulose membrane via amide
notes: iASPP (human) residues 60-74; source: synthetic peptide on CelluSpots array (INTAVIS)
HLT-iASPP Ank-SH3
  binding result: binds

B7: iASPP Pro array peptide 308-322 (spot B21) (peptide)
peptide: Ac-TLPRNYKVSPLASDR-{cellulose membrane (amide bond)}
modifications: also: C-terminus bound to cellulose membrane via amide
notes: iASPP (human) residues 308-322; source: synthetic peptide on CelluSpots array (INTAVIS)
HLT-iASPP Ank-SH3
  binding result: binds

B8: iASPP Pro array peptide 156-170 (spot B2) (peptide)
peptide: Ac-APSPRPGPGPLRQQG-{cellulose membrane (amide bond)}
modifications: also: C-terminus bound to cellulose membrane via amide
notes: iASPP (human) residues 156-170; source: synthetic peptide on CelluSpots array (INTAVIS)
HLT-iASPP Ank-SH3
  binding result: binds

B9: iASPP Pro array peptide 196-210 (spot B7) (peptide)
peptide: Ac-FFPERGPSPRPPATA-{cellulose membrane (amide bond)}
modifications: also: C-terminus bound to cellulose membrane via amide
notes: iASPP (human) residues 196-210; source: synthetic peptide on CelluSpots array (INTAVIS)
HLT-iASPP Ank-SH3
  binding result: binds

B10: iASPP Pro array peptide 340-354 (spot C1) (peptide)
peptide: Ac-GTLPRSWQPVSRIPM-{cellulose membrane (amide bond)}
modifications: also: C-terminus bound to cellulose membrane via amide
notes: iASPP (human) residues 340-354; source: synthetic peptide on CelluSpots array (INTAVIS)
HLT-iASPP Ank-SH3
  binding result: binds

B11: iASPP Pro array peptide 132-146 (spot A23) (peptide)
peptide: Ac-YGSLDRATSPRPRAF-{cellulose membrane (amide bond)}
modifications: also: C-terminus bound to cellulose membrane via amide
notes: iASPP (human) residues 132-146; source: synthetic peptide on CelluSpots array (INTAVIS)
HLT-iASPP Ank-SH3
  binding result: binds

B12: iASPP Pro array peptide 68-82 (spot A15) (peptide)
peptide: Ac-PRYSSSSIPEPFGSR-{cellulose membrane}
modifications: also: C-terminus bound to cellulose membrane via amide
notes: iASPP (human) residues 68-82; source: synthetic peptide on CelluSpots array (INTAVIS)
HLT-iASPP Ank-SH3
  binding result: binds

B13: iASPP Pro array peptide 148-162 (spot B1) (peptide)
peptide: Ac-GAGSSLGRAPSPRPG-{cellulose membrane (amide bond)}
modifications: also: C-terminus bound to cellulose membrane via amide
notes: iASPP (human) residues 148-162; source: synthetic peptide on CelluSpots array (INTAVIS)
HLT-iASPP Ank-SH3
  binding result: binds

B14: iASPP Pro array peptide 484-498 (spot C19) (peptide)
peptide: Ac-VARPLSPTRLQPALP-{cellulose membrane}
modifications: also: C-terminus bound to cellulose membrane via amide
notes: iASPP (human) residues 484-498; source: synthetic peptide on CelluSpots array (INTAVIS)
HLT-iASPP Ank-SH3
  binding result: binds

B15: iASPP Pro array peptide 324-338 (spot B23) (peptide)
peptide: Ac-SDAGSYRRSLGSAGP-{cellulose membrane (amide bond)}
modifications: also: C-terminus bound to cellulose membrane via amide
notes: iASPP (human) residues 324-338; source: synthetic peptide on CelluSpots array (INTAVIS)
HLT-iASPP Ank-SH3
  binding result: binds

B16: iASPP Pro array peptide 380-394 (spot C6) (peptide)
peptide: Ac-NAFWEHGASRAMLPG-{cellulose membrane (amide bond)}
modifications: also: C-terminus bound to cellulose membrane via amide
notes: iASPP (human) residues 380-394; source: synthetic peptide on CelluSpots array (INTAVIS)
HLT-iASPP Ank-SH3
  binding result: binds

B17: iASPP Pro array peptide 548-562 (spot D4) (peptide)
peptide: Ac-SRLFHRHGGPGPGGP-{cellulose membrane}
modifications: also: C-terminus bound to cellulose membrane via amide
notes: iASPP (human) residues 548-562; source: synthetic peptide on CelluSpots array (INTAVIS)
HLT-iASPP Ank-SH3
  binding result: binds

B18: iASPP Pro array peptide 388-402 (spot C7) (peptide)
peptide: Ac-SRAMLPGSPLFTRAP-{cellulose membrane (amide bond)}
modifications: also: C-terminus bound to cellulose membrane via amide
notes: iASPP (human) residues 388-402; source: synthetic peptide on CelluSpots array (INTAVIS)
HLT-iASPP Ank-SH3
  binding result: binds

B19: iASPP Pro array peptide 172-186 (spot B4) (peptide)
peptide: Ac-PTPFDFLGRAGSPRG-{cellulose membrane (amide bond)}
modifications: also: C-terminus bound to cellulose membrane via amide
notes: iASPP (human) residues 172-186; source: synthetic peptide on CelluSpots array (INTAVIS)
HLT-iASPP Ank-SH3
  binding result: binds
